{"source": "patent US20240409647A1", "about": "“BISPECIFIC BINDING PROTEINS AGAINST ALARMINS AND USES THEREOF” (SINOMAB BIOSCIENCE LIMITED, priority 2022, published 2024)", "origin": "cited, not measured here", "molecules": {"B1": {"name": "itepekimab: anti-IL-33 antibody (antibody, chains of the INN, looked up, V domains shown)", "VH": "EVQLVESGGNLEQPGGSLRLSCTASGFTFSRSAMNWVRRAPGKGLEWVSGISGSGGRTYYADSVKGRFTISRDNSKNTLYLQMNSLSAEDTAAYYCAKDSYTTSWYGGMDVWGHGTTVTVSS", "VL": "DIQMTQSPSSVSASVGDRVTITCRASQGIFSWLAWYQQKPGKAPKLLIYAASSLQSGVPSRFSGSGSGTDFTLTISSLQPEDFAIYYCQQANSVPITFGQGTRLEIK"}}, "conditions": "patients who discontinued ICS and LABA, 12 weeks; placebo 41%", "data": [{"molecule": "B1", "values": [{"measurement": "rate of loss of asthma control", "value": 22, "unit": "%"}]}]}
